Reference: patent US8586538B2, “Method of treating a patient suffering from a bleeding disorder comprising administering an antibody against the A3-C1 of FVIII” (Stichting Sanquin Bloedvoorziening, priority 2002, dated 2013)

Molecular target: T1, interaction between FVIII light chain and LRP (Homo sapiens, UniProt P00451)
T1 construct: from tissue; host or cells: FVIII light chain from plasma; LRP from placenta
T1 sequence (P00451 1668-2351 limits assumed): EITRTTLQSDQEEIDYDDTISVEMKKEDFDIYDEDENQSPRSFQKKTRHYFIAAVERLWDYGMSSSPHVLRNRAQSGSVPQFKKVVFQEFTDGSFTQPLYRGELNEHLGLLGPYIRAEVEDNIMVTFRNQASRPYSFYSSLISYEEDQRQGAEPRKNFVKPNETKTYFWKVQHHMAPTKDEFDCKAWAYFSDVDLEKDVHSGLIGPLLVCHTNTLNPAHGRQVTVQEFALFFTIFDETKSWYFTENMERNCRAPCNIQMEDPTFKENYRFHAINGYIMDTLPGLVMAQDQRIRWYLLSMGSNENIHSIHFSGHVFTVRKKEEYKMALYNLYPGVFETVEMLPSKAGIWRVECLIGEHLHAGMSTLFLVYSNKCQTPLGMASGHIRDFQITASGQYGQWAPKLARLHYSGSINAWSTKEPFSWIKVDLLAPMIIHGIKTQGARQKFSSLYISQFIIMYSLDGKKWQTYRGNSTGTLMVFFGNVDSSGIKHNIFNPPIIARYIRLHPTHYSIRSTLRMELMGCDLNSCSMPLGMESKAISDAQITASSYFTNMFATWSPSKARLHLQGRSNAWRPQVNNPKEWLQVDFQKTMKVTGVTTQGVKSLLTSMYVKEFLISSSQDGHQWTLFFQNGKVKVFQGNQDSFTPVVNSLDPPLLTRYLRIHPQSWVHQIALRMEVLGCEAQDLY
Assay: SPR competition: FVIII light chain binding to immobilized LRP
Conditions: FVIII light chain 50 nM; scFv 20-500 nM
Procedure: FIG. 4. Effect of scFv antibody fragments on the interaction between FVIII light chain and LRP. A, FVIII light chain (LCh) (25 nM) was incubated with immobilized LRP cluster II (1 pmol/well) in a volume of 50 μl in 150 mM NaCl, 5 mM CaCl2, 1% (w/v) HSA, 0.1% Tween® 20, and 50 mM Tris (pH 7.4) in the presence of various concentrations (0-100 nM) of scFv KM41 (closed circles) or scFv KM36 (open circles) for 2 h at 37° C. After washing with the same buffer, bound FVIII light chain was quantified by incubation with peroxidase-conjugated anti-FVIII antibody CLB-CAg 12 for 15 min at 37° C. Residual binding is expressed as the percentage of binding in the absence of competitor and is corrected for nonspecific binding (less than 5% relative to binding to LRP cluster II-immobilized wells). […] Binding was assessed in the absence (curve 1) or in the presence of increasing concentrations of scFv KM41 (20, 60, 300, 500 nM, curves 2-5, respectively). […]
The kinetics of protein interactions was determined by surface plasmon resonance (SPR) analysis, employing a BIAcore™2000 biosensor system (Biacore AS, Uppsala, Sweden). […] Association of analyte was assessed in 150 mM NaCl, 2 mM CaCl2, 0.005% (v/v) Tween® 20, and 20 mM Hepes (pH 7.4) for 2 min, at a flow rate of 20 μl/min at 25° C. […] Equilibrium dissociation constants (kd) were calculated from the ratio koff/kon. […]

Effect on association of FVIII light chain with immobilized LRP: only partially inhibits
B1: scFv KM41: scFv antibody fragment directed against FVIII region Arg^1803-Lys^1818 (protein)
scFv: QVQLLQSAADVKKPGASVKVSCTASGYIFTSYDIDWVRQATGQGLEWMGWMNPNSGNAGFAQKFKGRLTLTRDTSTSTAYMELRRLESEDTAVYYCARSTPHSYSGSGLPPTSDSWGQGTLVTVSSGGGGSGGGGSGGGGSEIVLTQSPGTLSLSPGERATLSCRASQSVSSSFLGWYQQKPGQAPRLLIYGASSRATGIPDRFSGSGSGTDFTLTISRLEPEDFAVYYCQQYGISPLTFGGGTKLEIKRAAAEQKLISEEDLNGAAHHHHHH
